Changes are numbered by the printed parent chain. Names may count otherwise.
Assays:
HeLa cells = test: Cellular internalization by flow cytometry; format: cell-based; conditions: for increase in cellular uptake into HeLa cells: 5 μM, 4 h, relative to unmodified lysozyme; for effect of fructose on enhancement of cellular uptake into HeLa cells: fructose 250 mM
Description: Cell lines were obtained from American Type Culture Collection (Manassas, Va.) and were maintained according to the recommended guidelines. Cells were grown in a cell culture incubator at 37° C. and 5% CO2 in flat-bottomed culture flasks. Cell media was supplemented with 10% (v/v) GIBCO fetal bovine serum (FBS), 100 units/mL penicillin, and 100 μg/mL streptomycin in the appropriate cellular media for HeLa cells: DMEM, high glucose (Invitrogen, Carlsbad, Calif.). Cells were counted by hemocytometry for dispensing into 12-well plates (Corning Costar, Lowell, Mass.).
BODIPY-FL was excited with a 488 nm solid-state laser and the emission was collected with a 530/30 bandpass filter. At least 10,000 cellular events were acquired for each sample. Data were analyzed using FlowJo 8.1.3 (Treestar, Ashland, Oreg.).
The day prior to the experiment, 1×10^5HeLa cells/well were plated in 12 well plates. The day of the experiment, the appropriate amount of fructose was dissolved into the cellular medium to obtain a final 250 mM fructose concentration, then it was sterile filtered with a 0.45 μm Whatman (Piscataway, N.J.) syringe filter. Non-fructose containing medium was likewise sterile filtered to maintain consistency between the experimental groups. Stock solutions of fluorescently labeled proteins were diluted into the cell culture to a final concentration of 5 μM. proteins were incubated with cells for four hours, then the cells were rinsed twice with PBS, removed from the cell culture plate with trypsin, placed in flow cytometry tubes containing 80 μL of FBS (to ensure cell viability), and incubated on ice until analyzed by flow cytometry. Final fluorescence values were divided by the percent fluorophore labeling of the protein to determine the corrected value of fluorescence. Experiments were run in triplicate (except for PBA-boronated lysozyme, which was in duplicate) and the data is reported as the mean±standard deviation normalized to the wild type protein uptake.
Flow cytometry experiments were conducted as described in Example 11 with Fluorescein-conjugated NeutrAvidin and Boronated Fluorescein-conjugated NeutrAvidin (boronated by complexation to the PBA-boronated Biotin-peptide conjugate) in HeLa cells.

Lec-2 cells = test: Cellular internalization by flow cytometry; format: cell-based, Chinese hamster
Description: (§1) Cell lines were obtained from American Type Culture Collection (Manassas, Va.) and were maintained according to the recommended procedures. Cells were grown in a cell culture incubator at 37° C. under CO2 (5% v/v) in flat-bottomed culture flasks. Cell medium was supplemented with GIBCO fetal bovine serum (FBS) (10% v/v), penicillin (100 units/mL), and streptomycin (100 μg/mL) in the appropriate cellular medium as follows: Pro-5, MEM α+ribonucleosides+deoxyribonucleosides; Lec-2, MEM α-ribonucleosides-deoxyribonucleosides; and K562, RPMI 1640. Cells were counted by hemocytometry for dispensing into 12-well plates (Corning Costar, Lowell, Mass.) or 8-well chambered coverglass slides (Nuc Lab-Tek II, Thermo Scientific).
(§2) BODIPY-FL was excited with a 488 nm solid-state laser and the emission was collected with a 530/30 bandpass filter. To collect the most reproducible data, for every flow cytometry experiment, the sensitivity (voltage) of the photomultiplier tube was set for all data collections using mid-range Rainbow beads from Spherotech (Lake Forest, Ill.) to a predetermined fluorescence target value. At least 10,000 cellular events were acquired for each sample. Data were analyzed using FlowJo 8.1.3 (Treestar, Ashland, Oreg.).
(§3) The day prior to an experiment, Pro-5 and Lec-2 cells were plated in 12-well plates at 1×10^5 cells/well. The day of the experiment, the appropriate amount of fructose was dissolved into the cellular medium to obtain a final fructose concentration of 250 mM, and the medium was passed through a 0.45-μm syringe filter from Whatman (Piscataway, N.J.). Non-fructose-containing medium was filtered likewise. Stock solutions of fluorescently labeled ribonucleases were diluted into the cell culture to a final concentration of 5 μM. Ribonucleases were incubated with cells for 4 h. Cells were then rinsed with PBS (2×400 μL), removed from the cell culture plate with trypsin (400 μL, 0.05% (1×) with EDTA; Invitrogen, Carlsbad, Calif.), placed in flow cytometry tubes containing 80 μL of FBS, and incubated on ice until analyzed by flow cytometry. Final fluorescence values were divided by the percent fluorophore labeling of the ribonuclease to determine the corrected value of fluorescence. Experiments were run twice in triplicate unless otherwise indicated. Data is illustrated in FIG. 4A and FIG. 4C.

Pro-5 cells = test: Cellular internalization by flow cytometry; format: cell-based, Chinese hamster
Description: as §1, §2, §3

[1] = Hydrolysis of labeled protein by cell lysate; format: in vitro ADME, human; conditions: K-562 cell lysate, ambient temperature, 12 h, MALDI-TOF
Description: K-562 cells were grown to confluence in a T75 flask before their collection and lysis with M-PER from Thermo Fisher Scientific. The presence of esterase activity in the lysate was verified by a colorimetric assay using p-nitrophenyl acetate (data not shown). A solution of esterified FLAG-RNase A (10 μg) was added to 200 μL of K-562 cell lysate, and the reaction mixture was nutated at ambient temperature for 12 h. FLAG-RNase A was purified with anti-FLAG® M2 Magnetic Beads from Sigma-Aldrich.

K-562 cells = test: Cell-proliferation assay, CyQUANT NF; format: cell-based, human; conditions: 48 h, serum-free RPMI 1640, read-out: IC50, inhibition of K-562 cell proliferation
Description: The effect of unmodified G88R RNase A and TMLB-G88R RNase A on the proliferation of K-562 cells was assayed using a CyQUANT® NF Cell Proliferation Assay Kit (Invitrogen). Briefly, 5×10^4 cells/mL were added to each well of a 96-well plate in 100 μL of serum-free RPMI 1640 medium. Cells were incubated with G88R RNase A or TMLB-G88R RNase A for 48 h, with PBS and H2O2 serving as negative and positive controls, respectively. Cells were then washed and incubated in CyQUANT® reagent for 30 min and fluorescence intensity was measured with excitation at ˜485 nm and emission detection at ˜530 nm. Data are the average of two measurements for each concentration, and the entire experiment was repeated in triplicate. The results are shown as the percentage of dye incorporated relative to control cells treated with PBS. Values for IC50 were calculated by fitting the curves by nonlinear regression to the equation: y=100%/(1+10^(log(IC50)-log [ribonuclease])h), where y is the total DNA synthesis following the CyQUANT dye pulse and h is the slope of the curve (FIG. 28).

[2] = Hydrolysis of labeled protein by cell lysate; format: in vitro ADME, Chinese hamster; conditions: CHO K1 cell lysate, ambient temperature, 12 h, MALDI-TOF
Description: CHO K1 cells were grown to confluence in a 10-cm^2 dish before their collection and lysis with M-PER (Thermo Fisher Scientific). The presence of esterase activity in the lysate was verified by a colorimetric assay using p-nitrophenyl acetate (data not shown). A solution of TMLB-GFP (10 μg) was added to 200 μL of CHO K1 cell lysate, and the reaction mixture was nutated at ambient temperature for 12 h. The GFP was subsequently purified with HisPur™ Ni-NTA Magnetic Beads (Thermo Fisher Scientific).

[3] = 5 μM, 4 h, relative to unmodified RNase A

benzoboroxole-boronated lysozyme: chicken egg white lysozyme conjugated with 5-amino-2-hydroxymethylphenylboronic acid, on average 2.3±1.1 per lysozyme
increase in cellular uptake into HeLa cells (HeLa cells): about 4 fold
effect of fructose on enhancement of cellular uptake into HeLa cells (HeLa cells): decreased

PBA-boronated lysozyme: chicken egg white lysozyme conjugated with 3-aminophenyboronic acid, on average 2.6±1.7 PBA
increase in cellular uptake into HeLa cells (HeLa cells): about 20 fold
effect of fructose on enhancement of cellular uptake into HeLa cells (HeLa cells): decreased

Boronated Fluorescein-conjugated NeutrAvidin: Fluorescein-conjugated NeutrAvidin boronated by complexation to the PBA-boronated Biotin-peptide conjugate
increase in internalization in HeLa cells (HeLa cells; relative to unmodified Fluorescein-conjugated NeutrAvidin): about 2 fold

B1: PBA-boronated RNase A: RNase A conjugated with 3-aminophenylboronic acid, on average 5.3±2.3 PBA per protein (conjugate, UniProt P61823 27-150, looked up)
Ribonuclease pancreatic: KETAAAKFERQHMDSSTSAASSSNYCNQMMKSRNLTKDRCKPVNTFVHESLADVQAVCSQKNVACKNGQTNCYQSYSTMSITDCRETGSSKYPNCAYKTTQANKHIIVACEGNPYVPVHFDASV
modifications: 3-aminophenylboronic acid conjugates
notes: RNase A conjugated with 3-aminophenylboronic acid, on average 5.3±2.3 PBA per protein
increase in cellular uptake (Lec-2 cells; [3]): 2.5-3 fold
effect of fructose on enhancement of cellular uptake (Lec-2 cells; fructose 0.25 M): eliminated
increase in cellular uptake (Pro-5 cells; [3]): 2.5-3 fold
effect of fructose on enhancement of cellular uptake (Pro-5 cells; fructose 0.25 M): eliminated

B2: esterified FLAG-RNase A: FLAG-RNase A labeled with TMLB-NHS ester, 1.6±0.7 labels per protein (conjugate, UniProt P61823 27-150, looked up)
Ribonuclease pancreatic: B1 Ribonuclease pancreatic
modifications: FLAG tag; TMLB ester labels
notes: FLAG-RNase A labeled with TMLB-NHS ester, 1.6±0.7 labels per protein
reversibility of labeling: removal of labels by cell lysate [1]: regeneration of unlabeled FLAG-RNase A was confirmed

B3: G88R RNase A: cytotoxic G88R variant of ribonuclease A (protein, UniProt P61823 27-150, looked up, variant G88R)
Ribonuclease pancreatic: B1 Ribonuclease pancreatic with G88R
IC50 (K-562 cells): 6.4 ± 0.1 µM

B4: TMLB-labeled G88R RNase A: G88R RNase A labeled with TMLB-NHS ester, 2±1 labels per protein (conjugate, UniProt P61823 27-150, looked up, variant G88R)
Ribonuclease pancreatic: B1 Ribonuclease pancreatic with G88R
modifications: TMLB ester labels
notes: G88R RNase A labeled with TMLB-NHS ester, 2±1 labels per protein
IC50 (K-562 cells): 3.5 ± 0.8 µM
reversibility of labeling: removal of labels by cell lysate [2]: removed all of the labels

— patent US9732101B2, “Bioreversible boronates for delivery of molecules into cells” (WISCONSIN ALUMNI RESEARCH FOUNDATION, priority 2012, dated 2017)
